# From article PMC4890538 (Angewandte Chemie (International ed. in English), 2015)
# T1: IL17-F (Interleukin member of the highly homologous IL-17 family) (UniProt Q96PD4 31-163)
# T1 sequence (looked up): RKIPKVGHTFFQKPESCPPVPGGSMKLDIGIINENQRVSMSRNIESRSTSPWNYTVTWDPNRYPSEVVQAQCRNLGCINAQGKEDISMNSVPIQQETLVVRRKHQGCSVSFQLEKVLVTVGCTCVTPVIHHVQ
# Experiments:
# [1] = biological target: T1, IL17-F (Interleukin member of the …)
# [2] = biological target: p-Akt2 (phospho serine / threonine kinase) (UniProt P31751 1-481)
# [3] = biological target: L1R, vaccinia virus L1R myristyl protein (vaccinia virus, UniProt P07612 1-250)
binder,measurement,setting,value
RRATS [Cy(RRATS-click)],EC50,[1],66 nM
YYTYT [Cy(YYTYT-click)],EC50,[2],122 nM
DARNI [Cy(DARNI-click)],EC50,[3],875 nM
